Laboratory results: article PMC4888466

What was measured:
Experiment in all cases: purified protein
Format in all cases: biochemical, Caenorhabditis elegans
[1] = system: O=P(O)(O)O[C@H]1O[C@H](CO)[C@@H](O)[C@H](O)[C@@H]1O; conditions: 1 mM GTP, 5 mM MgCl2, pH 7.5, 25°C
[2] = system: O=P(O)(O)O[C@H]1O[C@H](CO)[C@@H](O)[C@H](O)[C@H]1O; conditions: 1 mM GTP, 5 mM MgCl2, pH 7.5, 25°C
[3] = system: Nc1nc2c(ncn2[C@@H]2O[C@H](COP(=O)(O)OP(=O)(O)OP(=O)(O)O)[C@@H](O)[C@H]2O)c(=O)[nH]1; conditions: 1 mM Man-1-P, 5 mM MgCl2, pH 7.5, 25°C

## GMP-1 (Caenorhabditis elegans)
[1]
  Km: 18.49 ± 2.14 µM
  kcat: 30.3 ± 0.69 s⁻¹
  kcat/Km: 1.64e+06 ± 190000 M⁻¹ s⁻¹
[2]
  Km: 508.90 ± 118.40 µM
  kcat: 33.1 ± 2.9 s⁻¹
  kcat/Km: 65000 ± 16000 M⁻¹ s⁻¹
[3]
  Km: 16.04 ± 1.68 µM
  kcat: 29.1 ± 0.58 s⁻¹
  kcat/Km: 1.81e+06 ± 190000 M⁻¹ s⁻¹
